Test results reported in article PMC9932118.
Where two headings read alike, the source gives them in different places.

Columns and labels:
[1] = target: T1, ZBTB7A ZF1-4 short fragment (Homo sapiens, UniProt O95365 370-500); test: FP
ZBTB7A long fragment [2] = target: T2, ZBTB7A long fragment (Homo sapiens, UniProt O95365 341-505); test: FP
[3] = target: T1, ZBTB7A ZF1-4 short fragment; test: X-ray crystallography
[4] = target: T1, ZBTB7A ZF1-4 short fragment; test: X-ray crystallography; remark: listed apart in the source
[5] = target: T1, ZBTB7A ZF1-4 short fragment; test: X-ray crystallography; remark: listed apart in the source
[6] = target: T1, ZBTB7A ZF1-4 short fragment; test: X-ray crystallography; remark: listed apart in the source
ZBTB7A long fragment [7] = target: T2, ZBTB7A long fragment; test: X-ray crystallography

T1 sequence (O95365 370-500): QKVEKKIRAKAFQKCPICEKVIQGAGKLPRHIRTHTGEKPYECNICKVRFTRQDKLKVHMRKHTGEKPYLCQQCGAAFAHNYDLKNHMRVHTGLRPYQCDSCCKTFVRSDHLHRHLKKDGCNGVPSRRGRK
T2 sequence (O95365 341-505): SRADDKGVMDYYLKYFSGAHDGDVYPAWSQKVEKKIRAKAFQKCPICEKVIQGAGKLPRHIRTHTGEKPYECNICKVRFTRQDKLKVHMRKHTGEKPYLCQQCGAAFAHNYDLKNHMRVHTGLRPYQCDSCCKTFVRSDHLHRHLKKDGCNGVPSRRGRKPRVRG

B1: oligo #6 CAST 16 bp (dsDNA)
DNA 1: AAGACCCCTCCCCGAA
DNA 2: TTCGGGGAGGGGTCTT
For B1, the Kd [1] was roughly 0.08 µM and the Kd (ZBTB7A long fragment [2]) was roughly 0.08 µM.

B2: GaCCC crystal DNA 7N5U (dsDNA)
DNA 1: GGGACCCTTGATGTTT
DNA 2: CAAACATCAAGGGTCC
B2: binds [3].

B3: GaCCC crystal DNA 7N5V (dsDNA)
DNA 1: GGGACCCTTGATGTTT
DNA 2: AAACATCAAGGGTCCC
B3: binds [4].

B4: GaCCC crystal DNA 7N5W (dsDNA)
DNA 1: GGGACCCTTCATGTTT
DNA 2: CAAACATGAAGGGTCC
B4: binds [5].

B5: CAST crystal DNA 8E3D (dsDNA)
DNA 1: GGTAAAAGACCCCTCCCCAAAT
DNA 2: ATTTGGGGAGGGGTCTTTTACC
B5: binds [6].

B6: CAST crystal DNA 8E3E (dsDNA)
DNA 1: GGTAAAAGACCCCTCCCCAAA
DNA 2: CTTTGGGGAGGGGTCTTTTAC
B6: binds (ZBTB7A long fragment [7]).
